Laboratory results reported in patent US8603466 (KING S COLLEGE LONDON, dated 2013).

B1: KSAb1 IgG (antibody, V domains shown)
VH: EVQLQQSGPELVKPGASMKISCKASGYSFSAYTMNWVKQSHGKNLEWIGLINPYNGGTNYNQEFEGKATLTVNKSSNTAFMELLSLTSDDSAVYYCARRDWDYFDYWGQGTTLTVSS
VL: DIVMTQSQKFMSTSVGDRVSIICKASQNVGTFVAWYQQKPGQSPKLLVYSASNRYTGVPDRFTGSGSGTDFTLTINNMQSEDLADYFCRQYSSYPYTFGGGTKLEI
notes: also called mAb9; IgG 9
B2: KSAb2 IgG (antibody, V domains shown)
VH: EVQLQQSGPELVKPGASMKISCKASGYSFTAYTMNWVKQTHGKNLEWIGLINPYNGGTNYNQKFEDKATLTVDKSSNTAYMDLLSLTSEDSAVYYCARRDWDYFDYWGQGTTLTVSS
VL: DVVMTQSQKFLSTSAGDRVSISCKASQNVGTALAWYQQKPGQSPKLLIYSASNRNTGVPDRFTGRGFGTDFTLTISNMQSEDLADYFCQQYSSYPYTFGGGTRLEI
notes: also called mAb17; IgG17

Tests used:
[1] = target: T1, human TSHR immobilised on coated tubes (TRAK II [DYNOtest human] kit) (human, UniProt P16473 21-764, limits assumed); experiment: TBII assay, displacement of 125I-TSH from human TSHR coated tubes (TRAK II DYNOtest human)
T1 construct: Receptor of a bought kit; also called human TSHR coated tubes; immobilized human TSHR

[2] = target: human TSHR on stably transfected CHO cells (human, UniProt P16473 21-764); experiment: cell-based or functional assay
[3] = target: T1, human TSHR immobilised on coated tubes …; experiment: saturation binding of 125I-IgG on human TSHR coated tubes (TRAK II DYNOtest human); printed as Kd but expressed as reciprocal Kd (L/mol)
Protocol: Free isotope was removed by gel filtration in SEPHAROSE™ G25 columns and specific activity calculated (7). Antibody affinity was measured by saturation binding analysis. […] The affinity results were expressed as reciprocal Kd values (L/mol).
The labeled IgG and Fab fragments of the mabs were then used as tracers in competition studies to study the epitopes on the receptor. […] Serum from normal individuals, with no family history of autoimmunity were used as controls.

Row | Binder | IC50 [1] | EC50 of cAMP stimulation, NaCl-free sucrose HBSS [2] | EC50 of cAMP stimulation, physiological NaCl HBSS [2] | IgG concentration giving 3 fold cAMP stimulation [2] | maximal stimulation of cAMP, fold over basal value [2] | Ka [3]
1 | B1 | 3.3 ng/mL | 9.4 ng/mL | 16.5 ng/ml | 1.2 ng/mL | 199 fold over basal | 4.5e+10 M⁻¹
2 | B2 | 10 ng/mL | 93 ng/mL | 100 ng/ml | 2.2 ng/mL | 183 fold over basal | 6.25e+10 M⁻¹
